{"source": "paper PMC5116031", "origin": "cited, not measured here", "molecular_target": "BECN1 CCD (Rattus norvegicus) (UniProt Q91XJ1)", "data": [{"substance": "BECN1 CCD (from UniProt Q91XJ1)", "values": [{"measurement": "Kd", "result": 89, "unit": "µM"}]}]}
